Assay results published in US20100191096A1, “PARAMAGNETIC BIOMOLECULE COMPLEXES AND USES THEREOF IN THE ASSESSMENT OF ORGAN FUNCTION” (priority 2007, published 2010).

Assays:
renal cortex = test: T1 weighted MRI of rat kidneys after i.v. contrast agent (contrast enhancement in renal cortex); conditions: 20 minutes after 30 seconds in vivo i.v. infusion of 800 μl Ringer solution containing ~1 mg complex
Method: The MRI hardware used to obtain the date in the figures described below is a Pharmascan 7T small animal MR scanner (from Bruker Biospin MRI GmbH, Ettlingen, Germany). The software is Paravision version 4 (from Bruker Biospin MR GmbH). Dynamic imaging was performed using a Flash sequence, with 2 mm slice thickness, 256×256 matrix, field of view (FOV) 6 cm, TR15.576 ms, TE3.7 ms, 250 evolution cycles, scan time 12 mins 27 sec. T1 weighted imaging was performed using a Flash T1 sequence, with 2 mm slice thickness, 256×256 matrix, FOV 6 cm, TR15.57 ms, TE3.7 ms, 10 averages, scan time 30 secs. T2 weighted imaging was performed using a Turbo RARE T2 sequence, with 2 mm slice thickness, 256×256 matrix, FOV 6 cm, TR4200 ms, TE36 ms, 3 averages, scan time 6 mins 47 secs.

[1] = test system: kidney (glomeruli, proximal tubular cells); conditions: cited from earlier work

Substance | contrast enhancement, T1 weighted MRI of coronal sections of rat kidneys (ex vivo) (renal cortex) | time at which breakdown products can be detected in plasma after i.v. injection ([1]; labelled aprotinin, i.v. injection) | renal handling of native aprotinin (filtration, tubular uptake) ([1]; rat, in vivo)
Gd-DTPA-Lysozyme: Complex of chicken egg white lysozyme linked via DTPA chelator to Gadolinium, Example 2 standard protocol | selectively enhanced the contrast in the renal cortex |  | 
aprotinin |  | 20 min | freely filtered in the glomeruli and quantitatively taken up into proximal tubular cells
